Targets include HLA-A*68:01; HLA-A*31:01; HLA-A*11:01; HLA-A*03:01; HLA-A*33:01.
Experiment in all cases: IEDB peptide-MHC binding, purified MHC/competitive/radioactivity; filed as Kd, often an IC50 or EC50 that approximates it; ≥ and ≤ were set here for values at or beyond the usual limits of such assays
[1] abbreviates: source organism: SARS coronavirus Tor2.
Where [2] appears, read: source organism: Vaccinia virus WR.
[3] abbreviates: source organism: Dengue virus 2 Jamaica/1409/1983.
Where [4] appears, read: source organism: Dengue virus 2 Peru/IQT2913/1996.
Where [5] appears, read: source organism: Dengue virus 3 Martinique/1243/1999.
Setting [6] is: source organism: Dengue virus 1 Brazil/97-11/1997.
[7] abbreviates: source organism: Dengue virus 1 Singapore/S275/1990.
[8] abbreviates: source organism: Dengue virus 4 Philippines/H241/1956.

41 sequences from the Immune Epitope Database (IEDB) can be followed below.

For the sequence AIYVFCISLK, the Kd with HLA-A*68:01 (setting [1]) is 8.8 µM; with HLA-A*31:01 (setting [1]), 11.3 µM; with HLA-A*11:01 (setting [1]) it was 0.489 µM; with HLA-A*03:01 (setting [1]) it was 0.161 µM; in the assay with HLA-A*33:01 (setting [1]), no less than 48.9 µM.

As for ALDGTFQRK, the Kd with HLA-A*68:01 (setting [2]) is no less than 47.2 µM; with HLA-A*31:01 (setting [2]), no less than 37.9 µM; in the assay with HLA-A*11:01 (setting [2]), 0.0304 µM; with HLA-A*03:01 (setting [2]), 0.0125 µM; with HLA-A*33:01 (setting [2]) it was no less than 77.7 µM.

Take ALNDMGKVRK: the Kd with HLA-A*03:01 (setting [3]) stood at 0.0365 µM.

Turning to ALNDTWKIEK, the Kd in the assay with HLA-A*11:01 (setting [4]) was determined as 0.398 µM; with HLA-A*03:01 (setting [4]), 0.0603 µM.

With AMCTNTFVLK, the Kd with HLA-A*11:01 (setting [5]) is 0.0209 µM; with HLA-A*03:01 (setting [5]), 0.0203 µM.

In the case of AQRRGRVGR, in the assay with HLA-A*31:01 (setting [5]), the Kd came out at 0.0132 µM.

Turning to ATDYIASGQR, the dissociation constant (Kd) was 0.192 µM in the assay with HLA-A*68:01 (setting [2]); 0.197 µM with HLA-A*31:01 (setting [2]); 0.0732 µM with HLA-A*11:01 (setting [2]); 0.148 µM with HLA-A*03:01 (setting [2]); 2.11 µM in the assay with HLA-A*33:01 (setting [2]).

On to ATEGALNTPK, for which the Kd is 0.22 µM with HLA-A*68:01 (setting [1]); 2.82 µM in the assay with HLA-A*31:01 (setting [1]); 0.00473 µM with HLA-A*11:01 (setting [1]); 0.082 µM in the assay with HLA-A*03:01 (setting [1]); no less than 44.6 µM with HLA-A*33:01 (setting [1]).

In the case of AVVYRGTTTY, the Kd is 0.861 µM with HLA-A*68:01 (setting [1]); 5.04 µM with HLA-A*31:01 (setting [1]); 0.492 µM in the assay with HLA-A*11:01 (setting [1]); 0.123 µM with HLA-A*03:01 (setting [1]); 19.3 µM in the assay with HLA-A*33:01 (setting [1]).

With CANGWIQYDK, the Kd was 0.0191 µM with HLA-A*68:01 (setting [2]); 0.0736 µM with HLA-A*31:01 (setting [2]); 0.599 µM in the assay with HLA-A*11:01 (setting [2]); 0.888 µM with HLA-A*03:01 (setting [2]); no less than 27 µM with HLA-A*33:01 (setting [2]).

On to CSRMLDTSEK, for which the Kd is 7.7 µM in the assay with HLA-A*68:01 (setting [2]); 1.56 µM in the assay with HLA-A*31:01 (setting [2]); 1.61 µM with HLA-A*11:01 (setting [2]); 1.01 µM in the assay with HLA-A*03:01 (setting [2]); no less than 70 µM with HLA-A*33:01 (setting [2]).

For the sequence DFAVSKGFFK, the Kd came to 0.0168 µM with HLA-A*68:01 (setting [1]); 1.04 µM with HLA-A*31:01 (setting [1]); 0.107 µM with HLA-A*11:01 (setting [1]); 0.768 µM with HLA-A*03:01 (setting [1]); 0.0501 µM with HLA-A*33:01 (setting [1]).

In the case of ESNILDIDLR, the Kd in the assay with HLA-A*68:01 (setting [3]) amounted to 0.16 µM.

In the case of EVYTQLCDHR, in the assay with HLA-A*68:01 (setting [5]), the Kd worked out at 0.0143 µM.

With GIFTTNIWLK, the Kd turned out to be 0.0125 µM in the assay with HLA-A*11:01 (setting [6]) and 0.0143 µM with HLA-A*03:01 (setting [6]).

In the case of GQGQNSADPK, the Kd is no less than 70.2 µM in the assay with HLA-A*68:01 (setting [1]) and no less than 70 µM with HLA-A*33:01 (setting [1]).

Regarding GSCVTTMAK, the Kd in the assay with HLA-A*11:01 (setting [3]) amounted to 0.115 µM.

For HTWQKQTQR, the results for the dissociation constant Kd with HLA-A*31:01 (setting [5]) and in the assay with HLA-A*33:01 (setting [5]) were 0.00288 µM and 0.0578 µM, respectively.

IALGLMALK: the Kd with HLA-A*11:01 (setting [5]) stood at 0.0427 µM.

In the case of ISNMLNIMNR, the results for the Kd in the assay with HLA-A*31:01 (setting [7]) and with HLA-A*33:01 (setting [7]) were no less than 38.1 µM and 0.157 µM, respectively.

Regarding ITWIGMNSR, the Kd was determined as 0.0112 µM in the assay with HLA-A*31:01 (setting [3]) and 0.0354 µM with HLA-A*33:01 (setting [3]).

KSAAIDGEYR: the Kd with HLA-A*68:01 (setting [6]) was 0.134 µM; in the assay with HLA-A*31:01 (setting [6]), 0.00404 µM.

For the sequence LLLRKLTSK, the Kd in the assay with HLA-A*03:01 (setting [3]) worked out at 0.0288 µM.

Turning to LVEYGTVVNK, in the assay with HLA-A*68:01 (setting [2]), the Kd worked out at 0.212 µM.

Take LVTPSMTMR: the Kd in the assay with HLA-A*31:01 (setting [5]) worked out at 0.343 µM.

As to MALFQPANK, the dissociation constant Kd with HLA-A*11:01 (source organism: Mammarenavirus juninense) is 0.048 µM.

With MIRPQPMEHK, the Kd with HLA-A*03:01 (setting [6]) is 0.00889 µM.

MTATPPGSR: the Kd in the assay with HLA-A*68:01 (setting [3]) turned out to be 0.0184 µM.

MTIIGRRLQR: the Kd with HLA-A*68:01 (setting [8]) was 0.0105 µM; with HLA-A*31:01 (setting [8]) it was 0.0151 µM; with HLA-A*33:01 (setting [8]), 0.0327 µM.

With RMLINRFTMK, the Kd was 0.334 µM with HLA-A*11:01 (setting [3]) and 0.00619 µM with HLA-A*03:01 (setting [3]).

On to SIMKNTTNTR, for which the Kd was found to be 0.139 µM with HLA-A*68:01 (setting [3]) and 0.672 µM in the assay with HLA-A*31:01 (setting [3]).

As for SQLAKRFSK, in the assay with HLA-A*11:01 (setting [6]), the Kd is 0.0499 µM.

Take STQSVLCVKK: the Kd is 0.00352 µM in the assay with HLA-A*68:01 (setting [2]), 0.18 µM with HLA-A*31:01 (setting [2]), 0.000157 µM with HLA-A*11:01 (setting [2]) and 0.118 µM with HLA-A*03:01 (setting [2]).

SYVMCTGSFK: the Kd was found to be 0.111 µM in the assay with HLA-A*03:01 (setting [6]) and 0.0177 µM in the assay with HLA-A*33:01 (setting [6]).

As for TAGPWHLGK, the Kd in the assay with HLA-A*11:01 (setting [3]) amounted to 0.0661 µM.

With TAKEVALLR, the Kd is 0.0751 µM with HLA-A*68:01 (setting [8]) and 0.0173 µM with HLA-A*33:01 (setting [8]).

In the case of TIFAGHLKCR, the Kd in the assay with HLA-A*68:01 (setting [6]) amounted to 0.0169 µM.

In the case of TTILTPMLR, the Kd amounted to 0.0109 µM with HLA-A*68:01 (setting [8]), 0.387 µM in the assay with HLA-A*11:01 (setting [8]) and 0.0364 µM with HLA-A*33:01 (setting [8]).

Turning to TVGPWHLGK, the results for the Kd with HLA-A*11:01 (setting [8]) and with HLA-A*03:01 (setting [8]) were 0.0245 µM and 0.017 µM, respectively.

VVGAGGVGK: the Kd with HLA-A*11:01 (source organism: Homo sapiens) came out at 0.0906 µM; in the assay with HLA-A*03:01 (source organism: Homo sapiens), 0.125 µM.

Regarding WSYYCGGLK, the dissociation constant Kd with HLA-A*03:01 (setting [3]) is 0.00128 µM.
